Assay results as given in IntAct's records for PubMed 20153263.

B1: Protein AF-9 (Homo sapiens), P42568 (parent)
chain: MASSCAVQVKLELGHRAQVRKKPTVEGFTHDWMVFVRGPEHSNIQHFVEKVVFHLHESFPRPKRVCKDPPYKVEESGYAGFILPIEVYFKNKEEPRKVRFDYDLFLHLEGHPPVNHLRCEKLTFNNPTEDFRRKLLKAGGDPNRSIHTSSSSSSSSSSSSSSSSSSSSSSSSSSSSSSSSSSSSSSSSSSTSFSKPHKLMKEHKEKPSKDSREHKSAFKEPSRDHNKSSKESSKKPKENKPLKEEKIVPKMAFKEPKPMSKEPKPDSNLLTITSGQDKKAPSKRPPISDSEELSAKKRKKSSSEALFKSFSSAPPLILTCSADKKQIKDKSHVKMGKVKIESETSEKKKSTLPPFDDIVDPNDSDVEENISSKSDSEQPSPASSSSSSSSSFTPSQTRQQGPLRSIMKDLHSDDNEEESDEVEDNDNDSEMERPVNRGGSRSRRVSLSDGSDSESSSASSPLHHEPPPPLLKTNNNQILEVKSPIKQSKSDKQIKNGECDKAYLDELVELHRRLMTLRERHILQQIVNLIEETGHFHITNTTFDFDLCSLDKTTVRKLQSYLETSGTS
B2: Protein ENL (Homo sapiens), Q03111 (parent)
chain: MDNQCTVQVRLELGHRAQLRKKPTTEGFTHDWMVFVRGPEQCDIQHFVEKVVFWLHDSFPKPRRVCKEPPYKVEESGYAGFIMPIEVHFKNKEEPRKVCFTYDLFLNLEGNPPVNHLRCEKLTFNNPTTEFRYKLLRAGGVMVMPEGADTVSRPSPDYPMLPTIPLSAFSDPKKTKPSHGSKDANKESSKTSKPHKVTKEHRERPRKDSESKSSSKELEREQAKSSKDTSRKLGEGRLPKEEKAPPPKAAFKEPKMALKETKLESTSPKGGPPPPPPPPPRASSKRPATADSPKPSAKKQKKSSSKGSRSAPGTSPRTSSSSSFSDKKPAKDKSSTRGEKVKAESEPREAKKALEVEESNSEDEASFKSESAQSSPSNSSSSSDSSSDSDFEPSQNHSQGPLRSMVEDLQSEESDEDDSSSGEEAAGKTNPGRDSRLSFSDSESDNSADSSLPSREPPPPQKPPPPNSKVSGRRSPESCSKPEKILKKGTYDKAYTDELVELHRRLMALRERNVLQQIVNLIEETGHFNVTNTTFDFDLFSLDETTVRKLQSCLEAVAT
B3: Protein AF-9 (Homo sapiens), P42568 (parent)
chain: B1 chain
partner: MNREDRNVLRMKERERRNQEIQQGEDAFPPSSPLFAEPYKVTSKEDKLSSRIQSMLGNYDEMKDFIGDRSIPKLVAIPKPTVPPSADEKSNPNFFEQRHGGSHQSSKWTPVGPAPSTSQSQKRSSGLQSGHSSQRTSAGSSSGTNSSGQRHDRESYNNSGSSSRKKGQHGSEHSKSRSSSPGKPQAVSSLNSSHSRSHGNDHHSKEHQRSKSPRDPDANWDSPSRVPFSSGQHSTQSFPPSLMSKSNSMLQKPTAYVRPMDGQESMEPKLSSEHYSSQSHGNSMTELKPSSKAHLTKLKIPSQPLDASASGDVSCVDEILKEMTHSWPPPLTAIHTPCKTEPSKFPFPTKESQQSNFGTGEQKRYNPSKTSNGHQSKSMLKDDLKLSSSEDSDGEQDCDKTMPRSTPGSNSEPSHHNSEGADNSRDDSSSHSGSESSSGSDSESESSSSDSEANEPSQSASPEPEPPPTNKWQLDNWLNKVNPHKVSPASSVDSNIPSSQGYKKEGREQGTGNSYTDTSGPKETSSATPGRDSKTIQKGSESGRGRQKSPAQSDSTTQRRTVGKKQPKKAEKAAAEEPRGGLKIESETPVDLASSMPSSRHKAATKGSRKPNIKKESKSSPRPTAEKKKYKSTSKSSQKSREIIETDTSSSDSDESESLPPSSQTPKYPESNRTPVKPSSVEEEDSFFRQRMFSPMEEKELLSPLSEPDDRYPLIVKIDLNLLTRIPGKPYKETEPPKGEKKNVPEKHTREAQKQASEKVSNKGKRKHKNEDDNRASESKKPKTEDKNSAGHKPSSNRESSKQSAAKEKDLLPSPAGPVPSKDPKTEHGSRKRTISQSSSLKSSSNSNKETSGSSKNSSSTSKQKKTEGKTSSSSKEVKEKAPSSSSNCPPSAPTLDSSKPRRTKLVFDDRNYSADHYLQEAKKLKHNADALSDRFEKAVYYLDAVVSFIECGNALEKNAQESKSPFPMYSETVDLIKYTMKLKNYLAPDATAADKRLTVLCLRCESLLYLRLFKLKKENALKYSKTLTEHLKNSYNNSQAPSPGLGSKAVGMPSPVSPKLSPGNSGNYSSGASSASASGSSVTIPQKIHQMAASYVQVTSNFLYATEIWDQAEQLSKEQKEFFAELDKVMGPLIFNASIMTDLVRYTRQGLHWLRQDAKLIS
B4: Protein ENL (Homo sapiens), Q03111 (parent)
chain: B2 chain
partner: B3 partner

Variants of: B1
Conditions: with dot1l_human DOT1L

| Variant | effect of a mutation on the interaction |
| --- | --- |
| L558E | decreasing interaction |

Variants of: B2
Conditions: with dot1l_human DOT1L

| Variant | effect of a mutation on the interaction |
| --- | --- |
| L550E | decreasing interaction |

Variants of: B3
Conditions: with aff4_human AFF4, Q9UHB7

| Variant | effect of a mutation on the interaction |
| --- | --- |
| L558E | decreasing interaction |

Variants of: B4
Conditions: with aff4_human AFF4, Q9UHB7

| Variant | effect of a mutation on the interaction |
| --- | --- |
| L550E | disrupting interaction |
